The numbers were not newly measured in patent publication US20200102349A1, “PEPTIDE REAGENTS AND METHODS FOR DETECTION AND TARGETING OF DYSPLASIA, EARLY CANCER AND CANCER” (THE REGENTS OF THE UNIVERSITY OF MICHIGAN, priority 2014, published 2020), which cites them from elsewhere.

The subject of this series is mouse xenograft tumor that overexpressesed EGFR. Particulars: whole body fluorescence imaging.

B1: Human recombinant EGF: Human recombinant EGF labeled with IRDye 800 CW (NHS ester) (protein, UniProt P01133 23-1207, looked up)
Pro-epidermal growth factor: PQHWSCPEGTLAGNGNSTCVGPAPFLIFSHGNSIFRIDTEGTNYEQLVVDAGVSVIMDFHYNEKRIYWVDLERQLLQRVFLNGSRQERVCNIEKNVSGMAINWINEEVIWSNQQEGIITVTDMKGNNSHILLSALKYPANVAVDPVERFIFWSSEVAGSLYRADLDGVGVKALLETSEKITAVSLDVLDKRLFWIQYNREGSNSLICSCDYDGGSVHISKHPTQHNLFAMSLFGDRIFYSTWKMKTIWIANKHTGKDMVRINLHSSFVPLGELKVVHPLAQPKAEDDTWEPEQKLCKLRKGNCSSTVCGQDLQSHLCMCAEGYALSRDRKYCEDVNECAFWNHGCTLGCKNTPGSYYCTCPVGFVLLPDGKRCHQLVSCPRNVSECSHDCVLTSEGPLCFCPEGSVLERDGKTCSGCSSPDNGGCSQLCVPLSPVSWECDCFPGYDLQLDEKSCAASGPQPFLLFANSQDIRHMHFDGTDYGTLLSQQMGMVYALDHDPVENKIYFAHTALKWIERANMDGSQRERLIEEGVDVPEGLAVDWIGRRFYWTDRGKSLIGRSDLNGKRSKIITKENISQPRGIAVHPMAKRLFWTDTGINPRIESSSLQGLGRLVIASSDLIWPSGITIDFLTDKLYWCDAKQSVIEMANLDGSKRRRLTQNDVGHPFAVAVFEDYVWFSDWAMPSVMRVNKRTGKDRVRLQGSMLKPSSLVVVHPLAKPGADPCLYQNGGCEHICKKRLGTAWCSCREGFMKASDGKTCLALDGHQLLAGGEVDLKNQVTPLDILSKTRVSEDNITESQHMLVAEIMVSDQDDCAPVGCSMYARCISEGEDATCQCLKGFAGDGKLCSDIDECEMGVPVCPPASSKCINTEGGYVCRCSEGYQGDGIHCLDIDECQLGEHSCGENASCTNTEGGYTCMCAGRLSEPGLICPDSTPPPHLREDDHHYSVRNSDSECPLSHDGYCLHDGVCMYIEALDKYACNCVVGYIGERCQYRDLKWWELRHAGHGQQQKVIVVAVCVVVLVMLLLLSLWGAHYYRTQKLLSKNPKNPYEESSRDVRSRRPADTEDGMSSCPQPWFVVIKEHQDLKNGGQPVAGEDGQAADGSMQPTSWRQEPQLCGMGTEQGCWIPVSSDKGSCPQVMERSFHMPSYGTQTLEGGVEKPHSLLSANPLWQQRALDPPHQMELTQ
modifications: Pro-epidermal growth factor IRDye 800CW label
Consider B1, for which the “time of peak signal after injection” value is reported as 2 days.
